Measurements from publication PMC7960543 (The Journal of Biological Chemistry, 2021).

B1: recombinant soluble CD40L (residues 118–261) with no N-terminal KGD motif, wild type [not stated] / CD40 fragment (residues 21–144) fused to GST [not stated] (parent complex)
chain 1: QNPQIAAHVISEASSKTTSVLQWAEKGYYTMSNNLVTLENGKQLTVKRQGLYYIYAQVTFCSNREASSQAPFIASLCLKSPGRFERILLRAANTHSSAKPCGQQSIHLGGVFELQPGASVFVNVTDPSQVSHGTGFTSFGLLKL
chain 2: EPPTACREKQYLINSQCCSLCQPGQKLVSDCTEFTETECLPCGESEFLDTWNRETHCHQHKYCDPNLGLRVQQKGTSETDTICTCEEGWHCTSEACESCVLHRSCSPGFGVKQIATGVSDTICE

Variants of: B1
Assay: ELISA; GST-CD40 (21–144) immobilized at 100 μg/ml in PBS; CD40L mutants 20 μg/ml; detection with anti-histidine Abs; read off a plot

| response | Variant |
| --- | --- |
| ~0.32 OD450 | chain 1 QNPQIAAHVISEASSKTTSVLQWAETGYYTMSNNLVTLENGKQLTVKRQGLYYIYAQVTFCSNREASSQAPFIASLCLKSPGRFERILLRAANTHSSAKPCGQQSIHLGGVFELQPGASVFVNVTDPSQVSHGTGFTSFGLLKL [chain 1 K26T] |
| ~0.35 OD450 | chain 1 QNPQIAAHVISEASSKTTSVLQWAEKEYYTMSNNLVTLENGKQLTVKRQGLYYIYAQVTFCSNREASSQAPFIASLCLKSPGRFERILLRAANTHSSAKPCGQQSIHLGGVFELQPGASVFVNVTDPSQVSHGTGFTSFGLLKL [chain 1 G27E] |
| ~0.24 OD450 | chain 1 QNPQIAAHVISEASSKTTSVLQWAEKGYYTMSNNLVTPENGKQLTVKRQGLYYIYAQVTFCSNREASSQAPFIASLCLKSPGRFERILLRAANTHSSAKPCGQQSIHLGGVFELQPGASVFVNVTDPSQVSHGTGFTSFGLLKL [chain 1 L38P] |
| ~0.29 OD450 | chain 1 QNPQIAAHVIRGASSKTTSVLQWAEKGYYTMSNNLVTLENGKQLTVKRQGLYYIYAQVTFCSNREASSQAPFIASLCLKSPGRFERILLRAANTHSSAKPCGQQSIHLGGVFELQPGASVFVNVTDPSQVSHGTGFTSFGLLKL [chain 1 S11R, chain 1 E12G] |
